Experimental findings from patent US20250092146A1, “ANTI-CCR8 ANTIBODIES, CONJUGATES, AND USES THEREOF” (Abilita Bio, Inc., priority 2023, published 2025) are described below.

As a reminder, the EC50 is the concentration at which the effect is half-maximal. Read a low EC50 as an effect from little substance.

For test [1], the target named is T1, HuT-78 cells that naturally express human CCR8 (Homo sapiens, UniProt P51685).
T1 construct: HuT-78 cells that naturally express human CCR8 were used as target cells; endogenous in cells; host or cells: HuT-78
T1 sequence (P51685 whole entry): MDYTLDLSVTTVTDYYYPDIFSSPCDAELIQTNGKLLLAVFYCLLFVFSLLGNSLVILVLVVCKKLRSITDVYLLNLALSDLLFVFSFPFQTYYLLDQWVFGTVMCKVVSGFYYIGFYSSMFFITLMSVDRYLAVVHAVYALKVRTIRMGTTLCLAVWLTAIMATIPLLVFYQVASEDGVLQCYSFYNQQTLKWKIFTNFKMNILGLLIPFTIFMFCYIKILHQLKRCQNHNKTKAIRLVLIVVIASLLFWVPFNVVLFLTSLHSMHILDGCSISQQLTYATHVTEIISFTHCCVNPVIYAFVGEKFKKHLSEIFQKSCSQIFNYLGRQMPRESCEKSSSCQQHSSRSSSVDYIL
The experiment in a line: Flow cytometry binding of yeast-display optimized VHH-Fc antibodies to HuT-78 cells. Particulars: Table 13. An excerpt:
Top VHH sequences were chosen from the FACS sorted populations based on an analysis of improved binding performance relative to the parental sequences and evidence of sequence enrichment by NGS. Candidate VHH were then cloned as VHH-Fc fusions to the short hinge of the IgG1 Fc domain (SEQ ID NO: 34), expressed in HEK293 cells as described earlier and purified for binding evaluation. Bmax values are shown as normalized to VHH-1 or VHH-2 depending on the clone family. […] Mutations are referenced by position according to the IMGT definition.

In test [2] the target is T2, hCCR8 (Homo sapiens, UniProt P51685).
T2 construct: expressed in transfected cells
T2 sequence (P51685 whole entry): as above
The test can be described thus: Flow cytometry binding of VHH-Fc fusion antibodies to hCCR8 on stably transfected HEK293 cells. Particulars: Table 11. As to the method:
VHH-Fc fusion antibodies were evaluated for their ability to bind to hCCR8 on stably transfected HEK293 cells by means of flow cytometry. Cells were incubated with different concentrations of the bivalent VHH-Fc fusions for 60 minutes at 4° C., followed by two washes with FACS buffer, followed by 30 minutes incubation at 4° C. with the Zenon R-Phycoerythrin Anti-human IgG (ThermoFisher Scientific, #Z-25455), and two additional washing steps. Data were plotted and fit using GraphPad Prism software. EC50 and Bmax values individual antibodies were calculated from the resulting dose-response curves. Bivalent VHH-Fc fusions (Seq ID NOs: 31, 33, and 87-103) of 19 different VHH domains (SEQ ID NOs: 27, 28, and 70-86) were tested for cell binding and results are shown in Table 7. […]
VHH-Fc fusion DNA constructs were then generated comprising encoding humanized VHH sequences (SEQ ID NOs: 106-111) fused in frame to the human IgG1 (SEQ ID NO: 34) directly to the short hinge sequence in the pFuse expression vector, and were expressed, purified and analyzed for binding to HEK293 cells expressing human CCR8 as in Example 5. Binding curves for VHH-Fc antibodies comprised of parental VHH-1 and the humanized VHH derivatives VHH-1.2-Fc and VHH-1.3-Fc are shown in FIG. 9A. Binding curves for VHH-Fc antibodies comprised of parental VHH-2 and the humanized VHH derivatives VHH-2-Fc, VHH-2.2-Fc and VHH-2.3-Fc, are shown in FIG. 9B. Cell binding EC50 values, normalized Bmax (relative to respective parental clone) data and humanizing mutations are shown in Table 10 below.
Approaches such as in vitro affinity maturation and rational mutagenesis can be performed to regain binding affinity and/or stability lost through humanization. In vitro affinity maturation generally involves building and amino acid substitution library where amino acid positions are varied across the CDRs and/or framework at a defined set of positions using sets of amino acids chosen to introduce new chemical diversity. The paratope residues within the CDR regions are of course key to antigen binding and care must be taken not to disrupt important structures while attempting to evolve improve antibody behavior. One approach to identify positions that are important to the maintenance of binding properties is to perform paratope mapping using single scanning alanine substitutions across antibody CDR regions. In this approach, residues that are critical to the maintenance of antibody binding to the antigen can be identified and at the same time permissive sites can be identified where it may be possible to make substitutions of other amino acids desirable for subsequent affinity maturation library construction. Site directed mutagenesis was used to make single alanine substitutions at each residue in the CDRs of VHH-1 (SEQ ID NO: 27) and VHH-2 (SEQ ID NO: 28). Changes in VHH-1 CDR amino acids to alanine are indicated in Table 11 (SEQ ID NOs: 112-137) and for VHH-2 CDRs (SEQ ID NO: 138-162) in Table 12. Mutation positions and residue changes to alanine with respect to the in the parental VHH sequences are referenced by their IMGT position. VHH domains containing the indicated modified CDR-1, CDR-2 or CDR-3 domains were used to construct Fc fusions by direct grafting to the short hinge of the human Fc domain (SEQ ID NO: 34). VHH-Fc constructs were expressed, purified and analyzed for binding to HEK293 cells expressing hCCR8 and the results are reported in Table 11 and Table 12. EC50 values are reported for each Fc fusion antibody containing a modified CDR, along with its respective Bmax value normalized to the to the matched wild type VHH-1-Fc or VHH-2-Fc fusion antibody.

Test [3] has as its target T2, hCCR8. The experiment in a line: Flow cytometry binding of purified VHHs to HEK293 cells expressing hCCR8. Particulars: monovalent VHH, FIG. 1. As to the method:
Recombinant cells expressing hCCR8 were resuspended to a final concentration of 1.0×10^6 cells/ml in FACS buffer. Surface expression of hCCR8 on transiently transfected HEK293 cells was confirmed by flow cytometry of HEK293 cells stained with PE anti-hCCR8 (Clone 433H, BD Biosciences, #566897) antibody. Dilutions of purified VHHs were incubated with cells for 60 min. Individual samples were distributed into 96-well v-bottom plates and incubated for one hour at 4° C. Bound VHH were then detected with an anti-VHH specific antibody (Goat anti-alpaca VHH, Jackson ImmunoResearch, #128-605-232). […] Binding was determined in parallel on HEK293 cells stably expressing the closely related receptor hCCR7 (SEQ ID NO: 41), as control for binding specificity.
On the technique in general: Flow cytometry measures light scatter and fluorescence of single cells or particles in a stream.

B1: VHH-1: llama anti-hCCR8 VHH, SEQ ID NO: 27; in Tables 11 and 13 tested as human IgG1 Fc fusion (protein)
VHH: QVQLQESGGGLVQAGGSLRLSCVASGSTSSIRRIGWYRQAPGKQRELVARFSSGGGTNYADFVKGRFTISGDNAKNTMYLQMNSLKPEDTAVYYCSARRLLGTSRVDYWGQGTQVTVSSHHHHHH
modifications: left off: small tags and cut ends
In the case of B1, the EC50 in test [1] (clones tested as VHH-Fc fusions (human IgG1 Fc), HuT-78 cells) amounted to 2.56 nM; in test [2] (VHH-1 CDR alanine mutants as human Fc fusions, HEK293 hCCR8), 1.73 nM. Moreover, the “Normalized Bmax (%)” value in test [1] (normalized to VHH-1 or VHH-2 depending on clone family) is listed as 100.0%. The “% Bmax” value in test [2] (normalized to wild type VHH-1-Fc) turned out to be 100%. Moreover, the “binding specificity hCCR8 vs human CCR7” value in test [3] is “specific binding to hCCR8 overexpressed in HEK293 cells and not to human CCR7”.
